The values below come from publication PMC12680351, “The novel GlcNAc 6-phosphate dehydratase NagS governs a metabolic checkpoint that controls nutrient signaling in Streptomyces” (PLOS Biology, 2025).

Read-outs that look alike come from different tables or passages of the source.

Series [1] addresses T1, NagS (Streptomyces coelicolor, UniProt Q9K3V1).
T1 construct: gene SCO4393; N-terminally His6-tagged NagS
T1 sequence (Q9K3V1 1-251): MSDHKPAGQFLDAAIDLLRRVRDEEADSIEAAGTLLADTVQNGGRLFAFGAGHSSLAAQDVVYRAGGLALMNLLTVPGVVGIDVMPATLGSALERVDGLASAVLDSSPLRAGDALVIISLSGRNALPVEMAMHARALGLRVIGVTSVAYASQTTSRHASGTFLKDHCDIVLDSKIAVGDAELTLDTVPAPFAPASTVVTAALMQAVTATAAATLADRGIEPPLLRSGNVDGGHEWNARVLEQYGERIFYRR
Description: X-ray crystal structure ([…] Å); competitive inhibition kinetics; thermal denaturation. In kind it is biochemical.

Series [2] concerns the target T2, NagS (Streptomyces coelicolor, UniProt Q9K3V1, S54A).
T2 construct: gene SCO4393
In kind it is biochemical.

Substrate in series [3]: CC(=O)N[C@H]1C(O)O[C@H](COP(=O)(O)O)[C@@H](O)[C@@H]1O
Put plainly: purified protein.

Substrate in series [4]: CC(=O)N[C@@H]1C(O)O[C@H](COP(=O)(O)O)[C@@H](O)[C@@H]1O
Put plainly: purified protein.

Substrate in series [5]: CC(=O)N[C@H]1C(O)O[C@H](COP(=O)(O)O)[C@H](O)[C@@H]1O
Description: purified protein. To be noted: divalent metal cation ([…] ZnCl2 supplemented during expression).

Series [6] deals with the molecule itself. Put plainly: SEC; analytical size-exclusion chromatography, Superdex 200 10/300 GL, NagS at 35 uM and 70 uM, 20 mM HEPES pH 7.5, 300 mM NaCl, 5% glycerol, 1 mM DTT; calibrated with a protein standard mix (15-600 kDa). In general terms: In gel filtration, larger molecules generally elute earlier.
Setting [7] is: divalent metal cation ([…] ZnCl2 supplemented during expression).
[8] abbreviates: catalytic site formed by both monomers, Ser54, Ser91, Glu94, Ser119, Ser121, His53 main chain, ArgB64, AsnB228, AlaB65, GlyB227.

One may read the Ki as the dissociation constant of the complex between target and ligand, obtained from inhibition or displacement. Lower therefore signals a stronger hold on the target. The Km is the concentration of substrate that gives half-maximal velocity. The term kcat denotes the maximal rate divided by the concentration of active sites. For orientation: kcat/Km means the second-order rate constant that governs catalysis at low substrate concentration. One may read the stoichiometry N as the number of molecules, sites or subunits per partner or assembly.

T2 sequence (Q9K3V1 whole entry S54A): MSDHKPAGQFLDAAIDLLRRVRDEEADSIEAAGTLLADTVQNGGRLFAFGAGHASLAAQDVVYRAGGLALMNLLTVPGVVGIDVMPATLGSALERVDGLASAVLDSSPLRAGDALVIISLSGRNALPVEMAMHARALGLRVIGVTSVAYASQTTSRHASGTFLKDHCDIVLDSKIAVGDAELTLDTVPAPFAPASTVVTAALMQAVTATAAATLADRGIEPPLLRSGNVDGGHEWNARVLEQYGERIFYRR

In turn, `O=C(O)[C@H](O)[C@@H](O)[C@H](O)[C@H](O)COP(=O)(O)O` [6-phosphogluconate] came in with a Ki in series [1] of 280 ± 30 µM.

As to `CC(=O)N[C@H]1C(O)O[C@H](COP(=O)(O)O)[C@@H](O)[C@@H]1O` (stereo partly drawn) [GlcNAc-6P], the Michaelis constant (Km) in series [2] came to 850 ± 90 µM.

B1: NagA (Streptomyces coelicolor A3(2)) (protein)
chain: MAPSKVLAGARVVLPTGTVDDGRVIVDGARIADTAPPQAETVDLAGHWVVPGFVDIHNHGGGGASFAGGTAEEILAGVETHRRHGTTTVVASAVTGDLDFLARHAGMLAELAQQGDIVGIHFEGPFISPCRKGAHDEQLLRDPDPAEVRKLVDAAHGHAKMMTLATELPGGLDSVRLLVEHGVIAAVGHTDATYEQTVQAIDAGATVATHLFNAMPPVGHRAPGPITALLEDERITVELINDGTHLHPAALQLAFHHAGAARVAFITDAMDAAGFGDGHYLLGPLEVEVADGVARLVEGGSIAGSTLTLDRAFKRAVTVDRLPVGDVVAAISANPARLLGLDDRIGSLEPGKDADLVVLDDAFDLVGVMRRGEWVVDPHLG
Regarding B1, in series [3] (setting [7]), the Michaelis-Menten constant (Km) turned out to be 1590 ± 210 µM, the kcat came to 160 ± 9.02 s⁻¹ and the kcat/Km was 101000 M⁻¹ s⁻¹. In series [4] (setting [7]), the Km was 2400 ± 440 µM, the catalytic constant (kcat) was 14.6 ± 1.1 s⁻¹ and the kcat/Km came to 6060 M⁻¹ s⁻¹. Moreover, in series [5], the Km amounted to 2840 ± 410 µM, the turnover number (kcat) was 29.2 ± 2.31 s⁻¹ and the kcat/Km came out at 10300 M⁻¹ s⁻¹.

B2: GlcNAc-6P dehydratase NagS (SCO4393) of Streptomyces coelicolor (enzyme, UniProt Q9K3V1 1-251, looked up)
chain: T1 sequence (Q9K3V1 1-251)
notes: NagS (SCO4393), Streptomyces coelicolor A3(2) M145; calculated mass of the NagS-His6 monomer 28.29 kDa; The methods say N-terminally His6-tagged (pET-15b); the results write NagS-His6; also called NagS-His6; N-acetylglucosamine-6-phosphate dehydratase; source: E. coli Rosetta (DE3)pLysS, purified (Ni-NTA, size-exclusion chromatography on Superdex 200); not shown: His6, N-terminal, kept
In the case of B2, in series [3] (setting [8]), the Km came to 450 ± 30 µM, the kcat was 24.7 ± 0.38 s⁻¹ and the kcat/Km came to 54800 M⁻¹ s⁻¹. For the same molecule, in series [4], the Km amounted to 680 ± 50 µM, the turnover number (kcat) was 0.9 ± 0.02 s⁻¹ and the kcat/Km is 1320 M⁻¹ s⁻¹. Further, the “stoichiometry N” value in series [6] was 2.
